Target: T1, FcγRIIa R (human, UniProt P12318 34-217)
T1 construct: extracellular domain; also called FcgRIIa R type; 2aR
T1 sequence (looked up): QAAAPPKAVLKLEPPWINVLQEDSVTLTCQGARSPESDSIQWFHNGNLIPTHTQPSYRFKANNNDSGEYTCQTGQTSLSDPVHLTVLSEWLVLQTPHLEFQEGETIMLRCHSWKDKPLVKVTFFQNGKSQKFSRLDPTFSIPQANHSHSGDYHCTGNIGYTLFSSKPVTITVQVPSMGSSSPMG
Experiment: SPR (Biacore), captured antibody, FcγR as analyte; relative binding activity

B1: GpH7-A5/GpH7-B3 variant N325_06M/GpL16-k0 (antibody, human IgG1, kappa)
heavy 1: not shown
heavy 2: not shown
light: DIVMTQSPLSLPVTPGEPASISCQASESLVHSNRNTYLHWYLQKPGQSPQLLIYKVSNRFSGVPDRFSGSGSGTDFTLKISRVEAEDVGVYYCSQNTHVPPTFGQGTKVEIERTVAAPSVFIFPPSDEQLKSGTASVVCLLNNFYPREAKVQWKVDNALQSGNSQESVTEQDSKDSTYSLSSTLTLSKADYEKHKVYACEVTHQGLSSPVTKSFNRGEC
notes: also called He Ab N325_06M
  He/Con_2aR: 152 % (GpH7-A5/GpH7-B3/GpL16-k0 = 100)

B2: GpH7-A5/GpH7-B3 variant P238_10E/GpL16-k0 (antibody, human IgG1, kappa)
heavy 1: not shown
heavy 2: not shown
light: DIVMTQSPLSLPVTPGEPASISCQASESLVHSNRNTYLHWYLQKPGQSPQLLIYKVSNRFSGVPDRFSGSGSGTDFTLKISRVEAEDVGVYYCSQNTHVPPTFGQGTKVEIERTVAAPSVFIFPPSDEQLKSGTASVVCLLNNFYPREAKVQWKVDNALQSGNSQESVTEQDSKDSTYSLSSTLTLSKADYEKHKVYACEVTHQGLSSPVTKSFNRGEC
notes: also called He Ab P238_10E
  He/Con_2aR: 151 % (GpH7-A5/GpH7-B3/GpL16-k0 = 100)

B3: GpH7-A5/GpH7-B3 variant N325_09D/GpL16-k0 (antibody, human IgG1, kappa)
heavy 1: not shown
heavy 2: not shown
light: DIVMTQSPLSLPVTPGEPASISCQASESLVHSNRNTYLHWYLQKPGQSPQLLIYKVSNRFSGVPDRFSGSGSGTDFTLKISRVEAEDVGVYYCSQNTHVPPTFGQGTKVEIERTVAAPSVFIFPPSDEQLKSGTASVVCLLNNFYPREAKVQWKVDNALQSGNSQESVTEQDSKDSTYSLSSTLTLSKADYEKHKVYACEVTHQGLSSPVTKSFNRGEC
notes: also called He Ab N325_09D
  He/Con_2aR: 116 % (GpH7-A5/GpH7-B3/GpL16-k0 = 100)

B4: GpH7-A5/GpH7-B3 variant P271_09D/GpL16-k0 (antibody, human IgG1, kappa)
heavy 1: not shown
heavy 2: not shown
light: DIVMTQSPLSLPVTPGEPASISCQASESLVHSNRNTYLHWYLQKPGQSPQLLIYKVSNRFSGVPDRFSGSGSGTDFTLKISRVEAEDVGVYYCSQNTHVPPTFGQGTKVEIERTVAAPSVFIFPPSDEQLKSGTASVVCLLNNFYPREAKVQWKVDNALQSGNSQESVTEQDSKDSTYSLSSTLTLSKADYEKHKVYACEVTHQGLSSPVTKSFNRGEC
notes: also called He Ab P271_09D
  He/Con_2aR: 110 % (GpH7-A5/GpH7-B3/GpL16-k0 = 100)

B5: GpH7-A5/GpH7-B3 variant P331_02A/GpL16-k0 (antibody, human IgG1, kappa)
heavy 1: not shown
heavy 2: not shown
light: DIVMTQSPLSLPVTPGEPASISCQASESLVHSNRNTYLHWYLQKPGQSPQLLIYKVSNRFSGVPDRFSGSGSGTDFTLKISRVEAEDVGVYYCSQNTHVPPTFGQGTKVEIERTVAAPSVFIFPPSDEQLKSGTASVVCLLNNFYPREAKVQWKVDNALQSGNSQESVTEQDSKDSTYSLSSTLTLSKADYEKHKVYACEVTHQGLSSPVTKSFNRGEC
notes: also called He Ab P331_02A
  He/Con_2aR: 106 % (GpH7-A5/GpH7-B3/GpL16-k0 = 100)

B6: GpH7-A5/GpH7-B3 variant P271_10E/GpL16-k0 (antibody, human IgG1, kappa)
heavy 1: not shown
heavy 2: not shown
light: DIVMTQSPLSLPVTPGEPASISCQASESLVHSNRNTYLHWYLQKPGQSPQLLIYKVSNRFSGVPDRFSGSGSGTDFTLKISRVEAEDVGVYYCSQNTHVPPTFGQGTKVEIERTVAAPSVFIFPPSDEQLKSGTASVVCLLNNFYPREAKVQWKVDNALQSGNSQESVTEQDSKDSTYSLSSTLTLSKADYEKHKVYACEVTHQGLSSPVTKSFNRGEC
notes: also called He Ab P271_10E
  He/Con_2aR: 103 % (GpH7-A5/GpH7-B3/GpL16-k0 = 100)

B7: GpH7-A5/GpH7-B3 variant N325_10E/GpL16-k0 (antibody, human IgG1, kappa)
heavy 1: not shown
heavy 2: not shown
light: DIVMTQSPLSLPVTPGEPASISCQASESLVHSNRNTYLHWYLQKPGQSPQLLIYKVSNRFSGVPDRFSGSGSGTDFTLKISRVEAEDVGVYYCSQNTHVPPTFGQGTKVEIERTVAAPSVFIFPPSDEQLKSGTASVVCLLNNFYPREAKVQWKVDNALQSGNSQESVTEQDSKDSTYSLSSTLTLSKADYEKHKVYACEVTHQGLSSPVTKSFNRGEC
notes: also called He Ab N325_10E
  He/Con_2aR: 105 % (GpH7-A5/GpH7-B3/GpL16-k0 = 100)

B8: GpH7-A5/GpH7-B3 variant P238_15Y/GpL16-k0 (antibody, human IgG1, kappa)
heavy 1: not shown
heavy 2: not shown
light: DIVMTQSPLSLPVTPGEPASISCQASESLVHSNRNTYLHWYLQKPGQSPQLLIYKVSNRFSGVPDRFSGSGSGTDFTLKISRVEAEDVGVYYCSQNTHVPPTFGQGTKVEIERTVAAPSVFIFPPSDEQLKSGTASVVCLLNNFYPREAKVQWKVDNALQSGNSQESVTEQDSKDSTYSLSSTLTLSKADYEKHKVYACEVTHQGLSSPVTKSFNRGEC
notes: also called He Ab P238_15Y
  He/Con_2aR: 156 % (GpH7-A5/GpH7-B3/GpL16-k0 = 100)

B9: GpH7-A5/GpH7-B3 variant N325_08L/GpL16-k0 (antibody, human IgG1, kappa)
heavy 1: not shown
heavy 2: not shown
light: DIVMTQSPLSLPVTPGEPASISCQASESLVHSNRNTYLHWYLQKPGQSPQLLIYKVSNRFSGVPDRFSGSGSGTDFTLKISRVEAEDVGVYYCSQNTHVPPTFGQGTKVEIERTVAAPSVFIFPPSDEQLKSGTASVVCLLNNFYPREAKVQWKVDNALQSGNSQESVTEQDSKDSTYSLSSTLTLSKADYEKHKVYACEVTHQGLSSPVTKSFNRGEC
notes: also called He Ab N325_08L
  He/Con_2aR: 144 % (GpH7-A5/GpH7-B3/GpL16-k0 = 100)

B10: GpH7-A5/GpH7-B3 variant P238_20W/GpL16-k0 (antibody, human IgG1, kappa)
heavy 1: not shown
heavy 2: not shown
light: DIVMTQSPLSLPVTPGEPASISCQASESLVHSNRNTYLHWYLQKPGQSPQLLIYKVSNRFSGVPDRFSGSGSGTDFTLKISRVEAEDVGVYYCSQNTHVPPTFGQGTKVEIERTVAAPSVFIFPPSDEQLKSGTASVVCLLNNFYPREAKVQWKVDNALQSGNSQESVTEQDSKDSTYSLSSTLTLSKADYEKHKVYACEVTHQGLSSPVTKSFNRGEC
notes: also called He Ab P238_20W
  He/Con_2aR: 117 % (GpH7-A5/GpH7-B3/GpL16-k0 = 100)

B11: GpH7-A5/GpH7-B3 variant P238_09D/GpL16-k0 (antibody, human IgG1, kappa)
heavy 1: not shown
heavy 2: not shown
light: DIVMTQSPLSLPVTPGEPASISCQASESLVHSNRNTYLHWYLQKPGQSPQLLIYKVSNRFSGVPDRFSGSGSGTDFTLKISRVEAEDVGVYYCSQNTHVPPTFGQGTKVEIERTVAAPSVFIFPPSDEQLKSGTASVVCLLNNFYPREAKVQWKVDNALQSGNSQESVTEQDSKDSTYSLSSTLTLSKADYEKHKVYACEVTHQGLSSPVTKSFNRGEC
notes: also called He Ab P238_09D
  He/Con_2aR: 148 % (GpH7-A5/GpH7-B3/GpL16-k0 = 100)
